{"source": "paper PMC4357505", "key": {"β-arrestin1": {"biological_target": "β-arrestin1 (UniProt P49407)", "assay": "GST pull-down from cell lysate", "conditions": "reference: YFP-GCN2 wild type; sites T899"}, "β-arrestin2": {"biological_target": "β-arrestin2 (UniProt P32121)", "assay": "GST pull-down from cell lysate", "conditions": "reference: YFP-GCN2 wild type; sites T899"}}, "data": [{"substance": "GCN2 1-1649 (from UniProt Q9P2K8) YFP-GCN2 T899A", "values": [{"measurement": "binding against the reference", "setting": "β-arrestin1", "value": "stronger"}, {"measurement": "binding against the reference", "setting": "β-arrestin2", "value": "stronger"}]}]}
